Measurements reported in a protein production outcome set (Wang et al. 2014).

Assay: label from the status in PepcDB records
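Note: failed if final PepcDB status was selected cloned or expressed and not failed if soluble or beyond.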

Sequence | protein production
MGVANLRVMHYVHKDKAFAYWSCTCVYAPESRYCSEEHKKMALAEREYELPHNFANVHLHTNMEDLVLPKIISYLRDPQLGIIEIPNLQYIDDVFNVTPTEQPDMFSTNLDEREEFNIWLFMMIS | failed
MDYSNTYGAYGGGGFLPESPARTGGNASTRFGVGSGSSLRDQRRSLLPVRVADLVHAVHDPVTNTFVLRDENEHQSITISEGSIVKVVAYVEELREQPLDLLWLLDDRSGEMIWARMASTSSSSLAALEQSGILVRVFGQLLEVDGRRVLNVRAIRKADGEVELRYHENLCQLSKLQLIRGYPTAGNALAGASSSPASPKAGPSKAVHRSSLGSGAPKEMAQQAPGLEIPAAFPPEHFKVLKCIREETARNRDAMLTDIAQRIALSTTKVRGICDALQNEGHIYCTLDDDTFRASSS | not failed
MSERPVQSKLNNALNILKQGDLRGSYAELERLLRDDLENAEIDYTLKGVRFWEDKLEKAKKASTPLERAEMMISQWKPFLAYIHRQGEEKESIIYSLKCAVFTIALEFYADLFNEESELPDAEPYRKIGLCYKVLGNYERALDFLRYAAEIDKNSGSVLADLADCYALYGEIKFAKAFFREAFFIDPEGIELQFLESEIICRLINRVYNLGYRVEDIADWLPIYGVIDGVFNVKRELRAFEVGQLKQNIFLMEGEVQNASQEQKHKLVPRLINHYFWLIDHYVSVNESKSKIDDLLLRIKVLDQNIYNCYMR | failed
MVQHLTAEEIIQYISDAKKSTPIKVYLNGNFEGITYPESFKVFGSEQSKVIFCEADDWKPFYEAYGSQFEDIEIEMDRRNSAIPLKDLTNTNARIEPGAFIREQAIIEDGAVVMMGATINIGAVVGEGTMIDMNATLGGRATTGKNVHVGAGAVLAGVIEPPSASPVIIEDDVLIGANAVILEGVRVGKGAIVAAGAIVTQDVPAGAVVAGTPAKVIKQASEVQDTKKEIVAALRKLND | not failed
MKDCCGGYESEELLMDFSGKDKAAYVQDTFNSIAKRYDVMNTLMSFGLDKGWRKKAVQTVEAKPGMTMVDICCGTAQLSLELAMTVGEQGQITGLDFSENMLKKAQENLAGSPYRSIIELRQGDAMNLPFADNSFDGATVGWGLRNLPDLEKGVQEMIRVVKPGGMVVSLDMAKPTMPGFKQGYWLYFNKLVPLMGKIWAGKAKAYQYLHDSAVEFPSQQELANIFARCGLTETRYQNLAGGVVAIVSGRKPR | failed
EKTVRVVINFKKTQKTIVRVSPHASLQELAPIICSKCEFDPLHTLLLKDYQSQEPLDLTKSLNDLGLRELYAMDVNRE | not failed
MKTFTLQDAGDIRRLLTERLMQSVNAGTVPWRQNIIRHGVPIHALSGQLFTGINVLLLWQSALQNGLTSNRWLTGDDLRSLGGSIIPGQRPTTIVRYTPSLSLFRVINIEQCDGLPTELRAGWPWPPAPVPGMERIEKWQRASQVPVLYRGQRPAVYLSESDRIELPGSDQGNLDSLTALLVSATGHPTRLGRSCFTGSDVPERDEYLQESLVADVGRAFLAALAGIPLAGTPMWNGELGSDPWILFKSASEAGKAVDWLEKQRLTTLPFDDVQHWQRLAAHLLTTHYGQQLDDTTLVCDSVVHQHLRYNISPGNAVNALARIYDWPRSDVAPALFILELNSVADAFASFSLNPGSLVVHRVASDIDDNKVVLEAPELETLFLPPPFAKSVDEVAANDEEEGGDPDDPGNLAALPWVRNQGRSNPHRATFIRQFQEIAPYENRWTVFSDFIHMSAAALHNRCHFVQEIEDDYLRRIKRYKKADQNRFPLLFNTLVEGMEFSASDFLGSVFMELELGDQRRGQYFTPYSVGYMMAKLQLADGLPALTSGERDFITVSDPACGAGGLIVAMAQAMLEAGFNPQKQMMAVCVDIDPVAAMMAYVQLALCGIPAMVIVGNSLSMEFRQTWRTPFWMMFGWERKWAREQERKAQQKVA | failed
MDATISVVCYKSKTLSNGEHPLMLRISKDGKKKYQSLGISVNPKFWDFQKNKPKPKCPNLEYLQKIILDKKLELQKKMLEIKSDQKEYSAATLIEANEKLQVAKNVDCFYKEIIAQCEINNKCGNRLVYLNSYNSLKRFTNGKLEIPFNTINVAWLEKYEKWLRSNGNKETTISLMFRTLRSTYNKAIKERCAHLSDYPFQEYKISKFDTSTQKRAIAKTDMLKFTETSQPIGQKKYVELSKDIFIFSYLCGGINFTDIANLTQENIVNGRLHYIRQKTGKLIKIGIPQEAMQIIKKYTDESNGYLFPILNVKVHKTALQKQNRIHKIRGKVNDILKTLGKRLGIEANITTYVARHSFASVLKKSGVNIALISEALGHSDLATTQIYLDSFDNEQVDEAMKNLL | failed
MSGADTKKKLVGRHKRVAFMDVAGDGKTYTRMTGFTSMSESKNASEYSRHYVDEESERTDVVGYAPSNDYEFDRYTNDLVQQKISEITDDELLGSDAQVSIVVVDLFDIKTDTPNTCVARKRDWSVVPDNSGDGTDALIYKGSLKANGEKIKGTATTTDNWQTCTFAAD | failed
MTEIATIEKPAQHGATTRLIDIVFPGDTNHHGTLFGGTGLALMDRVAFIAATRFGRTPFVTASCERIDFRQPARIGHIVEFTARPVKAGRRSLTVEVEMVAETIIGRQQHTCTRGIFHMVAIPEGEDAASYVLPELLTEETPDPSDAVTMVEIVFPDQANSAGRMFGGEAIAYMTKAAFVAASRYCGKLVVLASSERIDFARAIEIGEIVEAQAHVERVGRSSMSIQTKLWSENLLTGERHITATGHFTMVAVDKDHRPATIRDPAEAFSLEKGGA | not failed
MSLLKNSSYILTLLSLFGFLLTWQRSAFSLFFLIPIFLTLFWEFFLFLKLRKNIIKEATLIKGSLFYRISMGDFYLYIFSFFLAIFGLVSLFLNFLNLEKIDFVFIFIILPLLMIFLKKELHLQFIDNAYNDFRIVVIASFFTALFYAFYGLFFTYNELLNLELFSRKIIAYKSASFVYFDFLSEFLHFVSNLKFFIFSYFGYLGFRALNFIFDFFNFFMFCSLLAFVFNFVLKIKIKIIVLFLCFIMVLGNYFLKEQRNNALKSEQEQILLWMNNFNFLKDNNLSLIQKEKDLFEKDLKDLREIFKKNAFEIGIWWFSKEKEDLEKRINESLK | failed
PFMDQSGGGVTFCGGEPLLHPEFLIDILKRCGQQGIHRAVDTTLLARKETVDEVMRNCELLLIDLKSMDSTVHQTFCDVPNELILKNIRRVAEADFPYYIRIPLIEGVNADEKNIKLSAEFLASLPRHPEIINLLPYHDIGKGKHAKLGSIYNPKGYKMQTPSEEVQQQCIQILTDYGLKATIGG | not failed
MSLASLPISNFFTFNHQSTLFTKVKNFMGVKHIGDCMKALINGTIYTSFSPVKKVSGLVISNERVLYAGDSSTALRIAELAGGEIIDLKGKFVMPAFFDSHLHLDELGMSLEMVDLRGVKSMEELVERVKKGRGRIIFGFGWDQDELGRWPTREDLDVIDRPVFLYRRCFHVAVMNSKMIDLLNLKPSKDFDESTGIVRERALEESRKIINEKILTVKDYKHYIESAQEHLLSLGVHSVGFMSVGEKALKALFELEREGRLKMNVFAYLSPELLDKLEELNLGKFEGRRLRIWGVKLFVDGSLGARTALLSEPYTDNPTTSGELVMNKDEIVEVIERAKPLGLDVAVHAIGDKAVDVALDAFEEAEFSGRIEHASLVRDDQLERIKELKVRISAQPHFIVSDWWIVNRVGEERAKWAYRLKTLSSITKLGFSTDSPIEPADPWVSIDAAVNRYVVDPGERVSREEALHLYTHGSAQVTLAEDLGKLERGFRAEYIILDRDPLKEMKGIITITTDPNSSSVDKLAAALEHHHHHH | not failed
KMLDEKFYSKLLGEELDLIICLPPDFSPLYKYPLFIVQDGKDYFQFGKLARHSEELAVNEQIQKAIFIGIPYKTVMDRREKYHPDGEQNEAYIRFLAFELVPYLEERFPSFQMPTSRFL | not failed
MDTQTVAAYDTLAETFAREWREQPAPDDLYALLRRMFKAGGDTVDIGCGAGREVAWLNANGYPAVGYDASAGLLEAARTQYPGLSFRRAMLPELVGIAEGAFDNVVCETVIMHLPPAQIGAAVRRLLALLRPGGTLYLSWRVTPEADQRDGRGRLYTAFDAAGVREALAGAQVLFDEVAVSQSSGLEHHHHHH | not failed
MEQYSEACIEACIDCMKACNHCFTKCLEESVQHHLSGCIRLDRECADICALAVKAMQTDSPFMKEICALCADICEACGTECGKHDHDHCQACAKACFTCAEQCRSMAALEHHHHHH | failed
MTVSQDILLTDHFKQWIEIFKKGKVSDGTYRKYLYTLSVLKKHFSTATIKTMNRVKYQEMLNEFAEGHSDSSVKQINVHVRASLENLLDDFIIKNDFTKGLEHHHHHH | failed
LGRITQHIAIKQDITEQVHRFNQLKISEERYRNLMNAVADGIFIHNLQGAFLEVNEAACLSLNYSREELINSYVWDIEVGFSQESLNQLWENVQKGPINTEGMHRRKDGTTFPVDVRLAVFNATGEKLVLAIVRDI | failed
MLAQIEQEHYSKLHEILRLCRANLKNYDESLIQRAFFMCYRAHEGEKRASGEPFFYHPVEVAKLLVTELPLDGVSVAAALLHDVIEDSGYTYEDISAELGAEVADIVEGLTKISEIMVNRETTEAEGFRKMLLSMVKDIRVILIKFCDRLHNMRTLDSLPEHRRLRMALETRDIYAPLAHRFGLGKMKVDLENLALKYIDPEMYDYLLKKVRLSRNERVAYLNKMIAPIKDDLEKQGFTVELQGRAKHLYSIYNKMRMKNKKFDDIHDLYGIRVIIDTEKISDCFAVYGYITQQFPPIPQHFKDYISIPKHNGYQSLHSAIIGPKGHVVELQIRTRRMHEFAELGVAAHWRYKEKISKDDAALDSFLKWARELIKDADSATAFMEGFKLNLYHDEIYVFTPKGDMKVLPAGATPIDFAYAIHSEIGNGCIGAKVNGKIVRLNTELRSGDRVEVITSKSQRPKADWLKIVVTHRAKLKIRAAINEERRQEIEKGRSIWEKMLSGSKKLFTENDAIRAIRQHGIKTPADLFNALAKQQISSEEVLERISHPHRPAETHESTVQARAPHKDFAEIAREVQERLGYQKDEVTIAGLNNISYSYAKCCNPVPGDDIIGFVTTGGTVKIHRKNCVNVTNENSVKSERIVSVAWNRKVDTDFLAGIRIVGEDKIGMTNQITGVISKFDTNIRTIVLNAKDGIFTCNLMIFVKNTDKLTTLMDKLRKVQGVFTVERLSN | failed
MSDAAEIRMDAGALNAFLHRAFPEVDPEQMPQVLEVEAGRALLKLPYASRQLRPGGVISGPTMMSLADTAAYAMILARIGEVALSVTTSLNIHFLRGCKPGDLYAEATLLKLGRRIATVDVLMWTQGRERAAAKATVAYAIP | failed
TRMAPVIMVPGSSASQNRFDSLITELGKETPKKHSVLKLTVQTDGTIKYSGSIAANDNEPFIVIGFANNRDGKANIDKQAVWLNTAFKALVKTYHFNHFYALGHSNGGLIWTLFLERYLKESPKVHIDRLMTIASPYNMESTSTTAKTSMFKELYRYRTGLPESLTVYSIAGTENYTSDGTVPYNSVNYGKYIFQDQVKHFTEITVTGANTAHSDLPQNKQIVSLIRQYLLAETMPDK | not failed
MADLRKAARGRECQVRIPGVCNGNPETSVLAHIRLTGLCGTGTKPPDLIATIACSACHDEIDRRTHFVDAGYAKECALEGMARTQVIWLKEGVIKA | not failed
MQSTIRKQLLQVFSEADGEFVSGQTISDKLGCSRTAVWKHMEDLRNEGYELEAVRRLGYRIASKPDKVTANEIQLGLQTKHIGRTVYFEESVESTQHIAAKLAYEGAEEGTIVVAEEQTAGRGRLSRKWHSPKGTGIWMSIILRPSIPVHHAPQLTLLAAVSVAQAIEKCTGVNVGIKWPNDILIQGKKAVGILTEMQADPDKINAVIMGIGINANQKQEHFDEEIQHIATSLAIESGKPIVRAELMQQIFLQLEKLYEEYLQNGFSVIKILWESYAVSIGKEINARTMRETITGVAKGITEDGVLLLEDHEGKVHHIHSADIEIK | failed
